One substance from publication PMC2171850 can be followed below.

For the test, the target named is Hrp65, endogenous in C. tentans tissue culture cells (C. tentans (endogenous in C. tentans tissue culture cells)). The experiment in a line: co-IP.

As to “Hrp59, endogenous in C. tentans tissue culture cells (natural protein)”, the percent of the association that is RNase-sensitive was 50%.
